# In US20150176059:
# Like-named read-outs stand apart in the source and are kept apart here.
# Assays:
# [1] = system: Z05-D DNA polymerase (Thermus sp. Z05?); conditions: SYBR Green melting, 50 mM Tris pH 8.0, 100 mM KCl, 2.5 mM MgCl2
# [2] = system: Z05 DNA polymerase (Thermus sp. Z05?); test: inhibition; conditions: KRAS PCR, 60 C, 10x excess, no UNG, 20 nM Z05, 3 mM MgCl2
sequence,measurement,setting,value
CGATCATCTCAGAACATTCTTAGCGTTTTGTTCTTGTGTATGATCG [U0 (NTQ21-46A)],binding,[1]; aptamer Tm 60.7 C with 20 nM Z05-D vs 59.0 C without,1.7 °C
same,activity,[2]; no-target Ct 32.0 vs 25.7 without aptamer,32 Ct
CGATCATCTCAGAACATTCTTAGCGTTTUGUUCUUGTGTATGATCG [U2],binding,"[1]; dU replacing dT at positions shown as u (medium dU content), aptamer Tm 59.5 C with 20 nM Z05-D vs 57.9 C without",1.6 °C
same,activity,"[2]; dU replacing dT at positions shown as u (medium dU content), no-target Ct 31.2 vs 25.7 without aptamer",31.2 Ct
CGAUCAUCTCAGAACATTCTTAGCGTTTTGTTCTTGTGTAUGAUCG [U1],binding,"[1]; dU replacing dT at positions shown as u (low dU content), aptamer Tm 58.4 C with 20 nM Z05-D vs 56.8 C without",1.6 °C
same,activity,"[2]; dU replacing dT at positions shown as u (low dU content), no-target Ct 31.7 vs 25.7 without aptamer",31.7 Ct
CGAUCAUCTCAGAACATTCTTAGCGTTTUGUUCUUGTGTAUGAUCG [U3],binding,"[1]; dU replacing dT at positions shown as u (high dU content), aptamer Tm 57.6 C with 20 nM Z05-D vs 55.6 C without",2 °C
same,activity,"[2]; dU replacing dT at positions shown as u (high dU content), no-target Ct 30.8 vs 25.7 without aptamer",30.8 Ct
